From paper PMC5748984 (The Journal of Cell Biology, 2018)

B1: Bet3 (endogenous, yeast) (natural protein)
chain: MVSTTQSRSLKAMGEEIWKNKTEKINTELFTLTYGSIVAQLCQDYERDFNKVNDHLYSMGYNIGCRLIEDFLARTALPRCENLVKTSEVLSKCAFKIFLNITPNITNWSHNKDTFSLILDENPLADFVELPMDAMKSLWYSNILCGVLKGSLEMVQLDCDVWFVSDILRGDSQTEIKVKLNRILKDEIPIGED
B2: prenylated Ypt1 (natural protein)
chain: not shown
modifications: prenylated with geranylgeranyl pyrophosphate in vitro; loaded with mantGDP

Legend:
Trs120-TAP = molecular target: T1, Trs120-TAP (budding yeast, UniProt Q04183 1-1289); assay: tandem affinity purification
T1 sequence: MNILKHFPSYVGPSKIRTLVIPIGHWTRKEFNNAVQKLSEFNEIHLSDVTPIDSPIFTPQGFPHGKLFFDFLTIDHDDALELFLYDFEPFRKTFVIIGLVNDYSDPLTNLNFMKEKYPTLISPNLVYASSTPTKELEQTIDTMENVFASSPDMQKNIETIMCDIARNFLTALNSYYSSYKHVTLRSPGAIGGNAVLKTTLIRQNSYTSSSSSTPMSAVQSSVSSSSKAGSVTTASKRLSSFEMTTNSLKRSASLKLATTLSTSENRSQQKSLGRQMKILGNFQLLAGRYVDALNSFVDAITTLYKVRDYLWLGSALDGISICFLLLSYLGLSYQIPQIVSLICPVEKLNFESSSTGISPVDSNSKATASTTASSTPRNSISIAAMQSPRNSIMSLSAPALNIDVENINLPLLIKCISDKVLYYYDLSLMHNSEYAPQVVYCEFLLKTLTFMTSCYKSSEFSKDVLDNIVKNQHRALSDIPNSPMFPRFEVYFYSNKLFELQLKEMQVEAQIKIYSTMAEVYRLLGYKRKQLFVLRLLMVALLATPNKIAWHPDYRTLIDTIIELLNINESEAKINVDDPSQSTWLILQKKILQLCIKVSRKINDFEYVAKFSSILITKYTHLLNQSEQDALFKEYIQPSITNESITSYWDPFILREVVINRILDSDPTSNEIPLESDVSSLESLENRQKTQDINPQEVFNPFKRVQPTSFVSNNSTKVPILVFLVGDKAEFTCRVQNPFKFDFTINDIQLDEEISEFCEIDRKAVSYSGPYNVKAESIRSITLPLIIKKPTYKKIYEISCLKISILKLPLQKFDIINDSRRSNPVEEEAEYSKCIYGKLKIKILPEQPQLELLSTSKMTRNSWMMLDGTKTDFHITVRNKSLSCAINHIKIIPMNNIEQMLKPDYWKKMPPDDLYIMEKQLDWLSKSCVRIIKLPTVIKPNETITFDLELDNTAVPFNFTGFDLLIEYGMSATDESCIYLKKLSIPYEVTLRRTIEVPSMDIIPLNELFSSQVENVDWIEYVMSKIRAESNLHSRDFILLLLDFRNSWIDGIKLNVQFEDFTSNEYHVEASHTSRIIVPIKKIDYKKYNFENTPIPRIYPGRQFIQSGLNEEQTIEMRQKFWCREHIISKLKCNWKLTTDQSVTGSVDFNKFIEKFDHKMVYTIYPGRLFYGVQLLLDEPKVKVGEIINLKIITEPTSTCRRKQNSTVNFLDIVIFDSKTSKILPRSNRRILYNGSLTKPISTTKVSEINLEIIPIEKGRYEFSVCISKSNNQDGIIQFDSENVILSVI

Trs85-TAP (from yeast) = molecular target: T2, Trs85-TAP (from yeast) (budding yeast, UniProt P46944 1-698); assay: tandem affinity purification
T2 sequence: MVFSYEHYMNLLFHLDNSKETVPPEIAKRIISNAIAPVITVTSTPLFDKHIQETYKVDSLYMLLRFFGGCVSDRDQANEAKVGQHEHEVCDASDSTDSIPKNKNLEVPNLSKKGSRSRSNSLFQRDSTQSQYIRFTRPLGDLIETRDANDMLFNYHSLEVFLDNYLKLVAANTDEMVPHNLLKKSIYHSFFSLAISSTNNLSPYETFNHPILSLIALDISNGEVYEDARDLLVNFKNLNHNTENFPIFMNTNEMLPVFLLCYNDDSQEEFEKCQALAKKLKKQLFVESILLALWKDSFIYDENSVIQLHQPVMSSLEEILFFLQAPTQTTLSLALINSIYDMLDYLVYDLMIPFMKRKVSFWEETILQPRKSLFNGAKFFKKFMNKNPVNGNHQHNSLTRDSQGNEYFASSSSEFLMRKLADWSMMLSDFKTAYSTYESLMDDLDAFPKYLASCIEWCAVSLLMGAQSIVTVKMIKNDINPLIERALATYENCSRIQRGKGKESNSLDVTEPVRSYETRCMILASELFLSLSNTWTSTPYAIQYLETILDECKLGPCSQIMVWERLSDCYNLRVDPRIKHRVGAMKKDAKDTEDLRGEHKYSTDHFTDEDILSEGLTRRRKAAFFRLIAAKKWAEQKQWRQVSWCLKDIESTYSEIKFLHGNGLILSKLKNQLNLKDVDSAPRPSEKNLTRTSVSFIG

Gdi1 = molecular target: T3, Gdi1 (UniProt P39958 1-451); assay: SEC
T3 sequence: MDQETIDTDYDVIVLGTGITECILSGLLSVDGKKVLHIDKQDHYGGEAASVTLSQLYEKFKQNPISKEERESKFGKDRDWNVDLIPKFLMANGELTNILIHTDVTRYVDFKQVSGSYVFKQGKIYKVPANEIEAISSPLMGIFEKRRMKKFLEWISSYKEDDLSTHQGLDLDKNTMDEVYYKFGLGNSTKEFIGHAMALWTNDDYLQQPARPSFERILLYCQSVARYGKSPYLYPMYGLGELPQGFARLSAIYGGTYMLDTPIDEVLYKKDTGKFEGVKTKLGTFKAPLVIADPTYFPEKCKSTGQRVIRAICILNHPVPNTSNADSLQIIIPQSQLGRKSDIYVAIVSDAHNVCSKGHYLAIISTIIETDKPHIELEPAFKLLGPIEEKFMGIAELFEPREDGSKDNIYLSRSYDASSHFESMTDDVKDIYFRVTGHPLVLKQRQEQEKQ

Binder | stoichiometry N (Trs120-TAP) | stoichiometry N (Trs85-TAP (from yeast)) | binding result (Gdi1)
B1 | 2 | 2 | 
B2 |  |  | binds
